Measured values as given in the Human Domainome abundance scans (Beltran et al. 2025).
± gives the uncertainty stated by the source.

B1: Retinoic acid receptor RXR-alpha, residues 132 to 208; numbered along this chain, P19793 (parent)
chain: KHICAICGDRSSGKHYGVYSCEGCKGFFKRTVRKDLTYTCRDNKDCLIDKRQRNRCQYCRYQKCLAMGMKREAVQEE

Variants of: B1
Assay: abundance fitness (aPCA) (normalised: wild type 0, dead -1); higher = more abundant; growth selection in yeast, the domain comes from the species named
Settings: Homo sapiens

Question: Which abundance fitness does the source give for KHICAICGDRSSGKHYGVYGCEGCKGFFKRTVRKDLTYTCRDNKDCLIDKRQRNRCQYCRYQKCLAMGMKREAVQEE here?
Answer: 0.065 ± 0.021

Question: With KHICAICGDRSSGKHYGVYQCEGCKGFFKRTVRKDLTYTCRDNKDCLIDKRQRNRCQYCRYQKCLAMGMKREAVQEE as the variant, how does the abundance fitness read?
Answer: 0.012 ± 0.035

Question: Which abundance fitness does the source give for KHICAICGDRSSGKHYGVYRCEGCKGFFKRTVRKDLTYTCRDNKDCLIDKRQRNRCQYCRYQKCLAMGMKREAVQEE here?
Answer: -0.571 ± 0.029

Question: With KHICAICGDRSSGKHYGVYICEGCKGFFKRTVRKDLTYTCRDNKDCLIDKRQRNRCQYCRYQKCLAMGMKREAVQEE as the variant, how does the abundance fitness read?
Answer: 0.019 ± 0.037

Question: With KHICAICGDRSSGKHYGVYWCEGCKGFFKRTVRKDLTYTCRDNKDCLIDKRQRNRCQYCRYQKCLAMGMKREAVQEE as the variant, how does the abundance fitness read?
Answer: 0.045 ± 0.029

Question: Which abundance fitness does the source give for KHICAICGDRSSGKHYGVYECEGCKGFFKRTVRKDLTYTCRDNKDCLIDKRQRNRCQYCRYQKCLAMGMKREAVQEE here?
Answer: -0.202 ± 0.031

Question: With KHICAICGDRSSGKHYGVYDCEGCKGFFKRTVRKDLTYTCRDNKDCLIDKRQRNRCQYCRYQKCLAMGMKREAVQEE as the variant, how does the abundance fitness read?
Answer: -0.276 ± 0.036

Question: Which abundance fitness does the source give for KHICAICGDRSSGKHYGVYCCEGCKGFFKRTVRKDLTYTCRDNKDCLIDKRQRNRCQYCRYQKCLAMGMKREAVQEE here?
Answer: 0.049 ± 0.031

Question: For KHICAICGDRSSGKHYGVYVCEGCKGFFKRTVRKDLTYTCRDNKDCLIDKRQRNRCQYCRYQKCLAMGMKREAVQEE, which abundance fitness is on record?
Answer: 0.035 ± 0.024

Question: Which abundance fitness does the source give for KHICAICGDRSSGKHYGVYLCEGCKGFFKRTVRKDLTYTCRDNKDCLIDKRQRNRCQYCRYQKCLAMGMKREAVQEE here?
Answer: 0.05 ± 0.026

Question: For KHICAICGDRSSGKHYGVYNCEGCKGFFKRTVRKDLTYTCRDNKDCLIDKRQRNRCQYCRYQKCLAMGMKREAVQEE, which abundance fitness is on record?
Answer: 0.031 ± 0.032

Question: Which abundance fitness does the source give for KHICAICGDRSSGKHYGVYHCEGCKGFFKRTVRKDLTYTCRDNKDCLIDKRQRNRCQYCRYQKCLAMGMKREAVQEE here?
Answer: 0.015 ± 0.03

Question: With KHICAICGDRSSGKHYGVYMCEGCKGFFKRTVRKDLTYTCRDNKDCLIDKRQRNRCQYCRYQKCLAMGMKREAVQEE as the variant, how does the abundance fitness read?
Answer: -0.027 ± 0.035

Question: For KHICAICGDRSSGKHYGVYPCEGCKGFFKRTVRKDLTYTCRDNKDCLIDKRQRNRCQYCRYQKCLAMGMKREAVQEE, which abundance fitness is on record?
Answer: -0.09 ± 0.03

Question: Which abundance fitness does the source give for KHICAICGDRSSGKHYGVPSCEGCKGFFKRTVRKDLTYTCRDNKDCLIDKRQRNRCQYCRYQKCLAMGMKREAVQEE here?
Answer: 0.006 ± 0.037

Question: For KHICAICGDRSSGKHYGVHSCEGCKGFFKRTVRKDLTYTCRDNKDCLIDKRQRNRCQYCRYQKCLAMGMKREAVQEE, which abundance fitness is on record?
Answer: -0.068 ± 0.041

Question: For KHICAICGDRSSGKHYGVMSCEGCKGFFKRTVRKDLTYTCRDNKDCLIDKRQRNRCQYCRYQKCLAMGMKREAVQEE, which abundance fitness is on record?
Answer: -0.015 ± 0.036

Question: For KHICAICGDRSSGKHYGVGSCEGCKGFFKRTVRKDLTYTCRDNKDCLIDKRQRNRCQYCRYQKCLAMGMKREAVQEE, which abundance fitness is on record?
Answer: -0.207 ± 0.037

Question: Which abundance fitness does the source give for KHICAICGDRSSGKHYGVLSCEGCKGFFKRTVRKDLTYTCRDNKDCLIDKRQRNRCQYCRYQKCLAMGMKREAVQEE here?
Answer: -0.04 ± 0.029

Question: Which abundance fitness does the source give for KHICAICGDRSSGKHYGVISCEGCKGFFKRTVRKDLTYTCRDNKDCLIDKRQRNRCQYCRYQKCLAMGMKREAVQEE here?
Answer: -0.107 ± 0.041

Question: For KHICAICGDRSSGKHYGVKSCEGCKGFFKRTVRKDLTYTCRDNKDCLIDKRQRNRCQYCRYQKCLAMGMKREAVQEE, which abundance fitness is on record?
Answer: -0.032 ± 0.035

Question: For KHICAICGDRSSGKHYGVSSCEGCKGFFKRTVRKDLTYTCRDNKDCLIDKRQRNRCQYCRYQKCLAMGMKREAVQEE, which abundance fitness is on record?
Answer: -0.067 ± 0.029

Question: For KHICAICGDRSSGKHYGVRSCEGCKGFFKRTVRKDLTYTCRDNKDCLIDKRQRNRCQYCRYQKCLAMGMKREAVQEE, which abundance fitness is on record?
Answer: -0.097 ± 0.031

Question: With KHICAICGDRSSGKHYGVTSCEGCKGFFKRTVRKDLTYTCRDNKDCLIDKRQRNRCQYCRYQKCLAMGMKREAVQEE as the variant, how does the abundance fitness read?
Answer: -0.073 ± 0.035

Question: For KHICAICGDRSSGKHYGVYSCEACKGFFKRTVRKDLTYTCRDNKDCLIDKRQRNRCQYCRYQKCLAMGMKREAVQEE, which abundance fitness is on record?
Answer: -0.082 ± 0.026

Question: With KHICAICGDRSSGKHYGVYSCEECKGFFKRTVRKDLTYTCRDNKDCLIDKRQRNRCQYCRYQKCLAMGMKREAVQEE as the variant, how does the abundance fitness read?
Answer: -0.039 ± 0.031

Question: For KHICAICGDRSSGKHYGVYSCECCKGFFKRTVRKDLTYTCRDNKDCLIDKRQRNRCQYCRYQKCLAMGMKREAVQEE, which abundance fitness is on record?
Answer: -0.258 ± 0.034

Question: Which abundance fitness does the source give for KHICAICGDRSSGKHYGVYSCEKCKGFFKRTVRKDLTYTCRDNKDCLIDKRQRNRCQYCRYQKCLAMGMKREAVQEE here?
Answer: -0.128 ± 0.033

Question: With KHICAICGDRSSGKHYGVYSCEDCKGFFKRTVRKDLTYTCRDNKDCLIDKRQRNRCQYCRYQKCLAMGMKREAVQEE as the variant, how does the abundance fitness read?
Answer: 0.049 ± 0.035

Question: For KHICAICGDRSSGKHYGVYSCELCKGFFKRTVRKDLTYTCRDNKDCLIDKRQRNRCQYCRYQKCLAMGMKREAVQEE, which abundance fitness is on record?
Answer: -0.407 ± 0.028

Question: Which abundance fitness does the source give for KHICAICGDRSSGKHYGVYSCEMCKGFFKRTVRKDLTYTCRDNKDCLIDKRQRNRCQYCRYQKCLAMGMKREAVQEE here?
Answer: -0.305 ± 0.034

Question: Which abundance fitness does the source give for KHICAICGDRSSGKHYGVYSCEFCKGFFKRTVRKDLTYTCRDNKDCLIDKRQRNRCQYCRYQKCLAMGMKREAVQEE here?
Answer: -0.424 ± 0.038

Question: For KHICAICGDRSSGKHYGVYSCEHCKGFFKRTVRKDLTYTCRDNKDCLIDKRQRNRCQYCRYQKCLAMGMKREAVQEE, which abundance fitness is on record?
Answer: -0.089 ± 0.032

Question: With KHICAICGDRSSGKHYGVYSCEPCKGFFKRTVRKDLTYTCRDNKDCLIDKRQRNRCQYCRYQKCLAMGMKREAVQEE as the variant, how does the abundance fitness read?
Answer: -0.126 ± 0.03

Question: With KHICAICGDRSSGKHYGVYSCENCKGFFKRTVRKDLTYTCRDNKDCLIDKRQRNRCQYCRYQKCLAMGMKREAVQEE as the variant, how does the abundance fitness read?
Answer: -0.269 ± 0.039

Question: For KHICAICGDRSSGKHYGVYSCEICKGFFKRTVRKDLTYTCRDNKDCLIDKRQRNRCQYCRYQKCLAMGMKREAVQEE, which abundance fitness is on record?
Answer: -0.407 ± 0.04
